The assay concerns the target Human CD3e/g protein (human) (UniProt P07766). The experiment in a line: ELISA, coated hCD3e/g. (In general: An ELISA detects its analyte on a solid surface through an enzyme-linked reagent.)

Changes are numbered by the printed parent chain.

B1: mAb001 (antibody, V domains shown)
VH: QVQLQQSGPELVKPGASVKISCKASGYSFTNYYMHWVKQRPGQGLEWIGWTYPGNNNIKYNEKFKGKATLTADTSSSTAYMQLSSLTSEDSAVYYCARDGYGYYFFDYWGQGIILTVSS
VL: DIVMSQSPSSLAVSAGEKVTMSCKSSQSLLNNRTRKNYLAWYQQKPGQSPKLLIYWASTRESGVPDRFTGSGSGTDFTLTISSVQAEDLAIYYCKQSYTLRTFGGGTKLAIK
Regarding B1, the EC50 – broadly, the concentration that produces a half-maximal response – amounted to 0.21 nM; the OD450 nm at 0.000853 nM was 0.207 OD450 nm; the OD450 nm at 0.0043 nM amounted to 0.12 OD450 nm; the OD450 nm at 0.02 nM came to 0.24 OD450 nm. Moreover, the OD450 nm at 0.11 nM is 0.89 OD450 nm, the OD450 nm at 0.53 nM was 3.2 OD450 nm, the OD450 nm at 2.67 nM is 3.64 OD450 nm and the OD450 nm at 13.3 nM came out at 3.67 OD450 nm. The molecule further came in with an OD450 nm at 66.7 nM of 3.67 OD450 nm.

B2: mAb007 (antibody, V domains shown)
VH: QVQLQQSGPELVKPGASVKISCKASGSTFTDNYIHWVKQRPGQGLEWIGWIYPGSVNIKYNEKFKDKATLTADTSSTTAYMQLSSLSSEDSAIYYCARDISRYYFDYWGQGTTLTVSS
VL: B1 VL with K18R, S22N, N32S, I91V, Y98F, T99I
For the molecule B2, the EC50 turned out to be 0.22 nM, the OD450 nm at 0.000853 nM is 0.123 OD450 nm, the OD450 nm at 0.0043 nM is 0.111 OD450 nm and the OD450 nm at 0.02 nM was determined as 0.27 OD450 nm. The OD450 nm at 0.11 nM was found to be 0.76 OD450 nm, the OD450 nm at 0.53 nM is 2.96 OD450 nm, the OD450 nm at 2.67 nM was determined as 3.39 OD450 nm and the OD450 nm at 13.3 nM came to 3.47 OD450 nm. The OD450 nm at 66.7 nM was 3.41 OD450 nm.
